Here are results for 1 molecule from US20230002466A1.

For this test, the target named is human IL2Rα (human) (UniProt P01589). Kind of test: SPR, IL2Rα captured on Protein A chip, IL2 at 100 nM. For orientation: SPR reads the build-up and loss of mass on a sensor chip optically.
Chain of human IL2Rα (human) (P01589 22-213 limits assumed): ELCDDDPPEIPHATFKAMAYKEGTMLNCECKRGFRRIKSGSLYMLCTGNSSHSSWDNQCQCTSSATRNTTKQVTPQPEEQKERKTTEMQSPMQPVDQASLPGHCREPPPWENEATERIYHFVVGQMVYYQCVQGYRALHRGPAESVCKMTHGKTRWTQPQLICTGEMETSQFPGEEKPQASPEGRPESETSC

B1: EP225 (ligand)
chain: APTSSSTKKTQLQLEHLLLDLQMILNGINNYKNPKLTRMLTAKFYMPKKATELKHLQCLEEELKPLEEVLNLAQSKNFHLTARDAVDNMRVIIQELKGSETTFMCEYADETATIVEFLNRWITFSQSIISTLTGSHHHHHH
Molecule B1 showed an RU (at 100 nM) of 7.4 RU and a Relevant binding to WT IL2 (%) of 5.21%.
